Laboratory results from the DeepSol protein solubility set.

Experiment: soluble on expression in E. coli; label from the status in PepcDB or PDB records

Sequence | soluble on expression in E. coli
MADSAQDLAFTAENFESLLNEQLGESGGLEGSVLTGTVIGVSGDFAVVDVGLKSEGRVPLKEFSRGGDDAEIKIGDTVDVFVERYEDKDGLIVLSRDKARREEAWNELEKAFNDNQRVRGLIHSRVKGGFTVDLSGAIAFLPGSQVDIRPVRDIGPLLGQPQVFQILKMDRARGNIVVSRRAVLEETRAEERSKLMETLREGEILEGVVKNITDYGAFVDLGGVDGLLHVTDISWKRINHPTEALSIGQTVKVQVIRFNAETQRISLGMKQLEADPWEGVAAKYPVGTKFVGRVTNITDYGAFVELEPGVEGLVHVSEMSWTKKNVHPGKIVSTSQEVEVMILDVDPDKRRISLGLKQTMANPWSEFLEGHPIGTEVEGEIKNITEFGLFIGLTGDIDGMIHLSDLDWNRSGDEAVKDYKKGDVVQAKVLDVDVEKERISLGVKQLGEDPYREATADLRKNQIVTCVITMVQENGIEVDVNGAIGFIRKSDLARERADQRPERFAVGEKVDAKVINMDKSNRRMTLSIKAREMDEEKQAMAEYGSADSGASLGDILGAALKQAQEKARTGDDELEHHHHHH | not soluble
MGKMIPYVIDLDAIFDLSSIEIYRLLTSSLSNVRYYPPKDLLKTVINDFDISKFKPFPDSQYLEELNYRARIYVITNLPKIEAKLLLVRYNLDAFIQDVISPEDINRYFPSKEVLVLISRKTNSPLGSITFITPHIDYAILTSNLGMRTILIRNSISLPRDIRVEIRKSLVELAEITAQHKIDSEAGDSALRCQ | not soluble
GPGSMIYSGEIENGQMHGRGCLQYPNKEKYDGDWVFGKRHGTGVYVYADGSRYEGEWVDDKVHGNGACYYTSGNVYTGEWSMGRINGRGVLEYHDGDRYEGEWKDGRMHGKGTYCYSNGDKYEGEWKEDKRHGKGVVVYAAPDGCVSEKYDGEWNEGRMQGWGKYFYADGGVYEGEWVDGRMHGRGTYVFPNGNKYEGEWVEDRKDGYGILLYTNGERYEGYWHLDKAHGKGTLTFLQGDRYVGEWHYGKKHGHGVLSYSNGDTYDGEWRDDDAWGYGVLQYANGCRYEGEWAEDRRHGKGLLVLPDGSSYEGSFAHGKKDGPGKIILKDGSMYIGTWKDGVIVGQGEFRLSENCDLSNPDY | soluble
MSKEQAHAELKKDYLIHDEKIMLMQEIVDRQLAAVPDLYRVKDEVSIYIGIPFCPTKCAYCTFPAYAIQGQAGRVGSFLWGLHYEMQKIGEWLKEHDVKVTTIYFGGGTPTSITAEEMDLLYEEMVRSFPDVKNIREITVEAGRPDTITEEKLAVLNKYDIDRISINPQSYENETLKAIGRHHTVEETIEKYHLSRQHGMNNINMDLIIGLPGEGVKEFRHSLSETEKLMPESLTVHTLSFKR | not soluble
MVHWADYIADKIIRERGEKEKYVVESGITPSGYVHVGNFRELFTAYIVGHALRDKGYEVRHIHMWDDYDRFRKVPRNVPQEWKDYLGMPISEVPDPWGCHESYAEHFMRKFEEEVEKLGIEVDLLYASELYKRGEYSEEIRLAFEKRDKIMEILNKYREIAKQPPLPENWWPAMVYCPEHRREAEIIEWDGGWKVKYKCPEGHEGWVDIRSGNVKLRWRVDWPMRWSHFGVDFEPAGKDHLVAGSSYDTGKEIIKEVYGKEAPLSLMYEFVGIKGQKGKMSGSKGNVILLSDLYEVLEPGLVRFIYARHRPNKEIKIDLGLGILNLYDEFEKVERIYFGVEGGKGDDEELRRTYELSMPKKPERLVAQAPFRFLAVLVQLPHLTEEDIINVLIKQGHIPRDLSKEDVERVKLRINLARNWVKKYAPEDVKFSILEKPPEVEVSEDVREAMNEVAEWLENHEEFSVEEFNNILFEVAKRRGISSREWFSTLYRLFIGKERGPRLASFLASLDRSFVIKRLRLEG | soluble
MGSDKIHHHHHHMVEHRGFDVLSLPWLDVPRQAFLTQLQTQKVPHAQLVGIDSAYGGELLSVFMARAAMCSQPTHTGGCGFCKSCQLFDAGNHPDFYQIEADGHQIKVDQIRELCSRLSATAQQSGRRVAIIHHSERLNSASANALLKTLEEPGKDTLLLLHSDTPARLMATISSRCQRLPFVAPSKTLIKNWLIQQCQIQEDVTWCLSVVGGPLKLAESLQSNSTQPSRYQTLLGFRKDWAQSLSSGHLCASLLIISEQQIIDALKVLYLLLRQILLKNGNQDAYVQAQIGNLAAKVMGMCHSLSAMPSVNYLGLCQSYVLEYRDITNK | not soluble
MGSDKIHHHHHHMSTSAIDPVSFSLYAKDFTRFAQELGASFERYGFAVLSDYDLDQARIDAAVDSAKAFFALPVETKKQYAGVKGGARGYIPFGVETAKGADHYDLKEFWHMGRDLPPGHRFRAHMADNVWPAEIPAFKHDVSWLYNSLDGMGGKVLEAIATYLKLERDFFKPTVQDGNSVLRLLHYPPIPKDATGVRAGAHGDINTITLLLGAEEGGLEVLDRDGQWLPINPPPGCLVINIGDMLERLTNNVLPSTVHRVVNPPPERRGVPRYSTPFFLHFASDYEIKTLQNCVTAENPDRYPESITADEFLQQRLREIKLA | not soluble
MSRLEAWAYLSRVFEGPSRSLQKLLETESDVEKIAWGIKKREAWLGPILFETASRYSVSLEQEDLTTIKNLGGRLVTPDDDEWPREKFETAFGFAASGTSSLVRSYQSDAVAPHALWVRGAPLSTTVDRSVAIVGTRAMSHYGKSATSMLAAGIADHHWTIVSGGALGVDTVAHTEALQRQKPTVAVCARGLDAPYPRKNAELLRSIVETGCLVSEYAPGLTPHRHRFLTRNRLVAALSQGTVVVEAAWRSGALNTLSWASALGRVAMAVPGPVTNTGSLGCHERIRNKEAELVCSAEEILALVGTLGEFDPNGQYELQFAADPIQSLSRNEMRVFDSLDANPHTTDTVAAAAGIPIGLCVHILRDLEKKQLVMREGAHWHRC | not soluble
MDVADSTSETPPVFDHDNLALAAQTNLLQFYLTHLASTLVPPMKLDMRDSMTPSFSQTESPNSETDDSTSAANKVLFSILGTPTTDSTSNAVSKSSSKLCSVCGDKSTGLHYGAATCEGCKGFFKRSVQNKKVYHCSQDNCCEIDKQNRNRCQSCRFRKCISKGMLTEAVREDRMPGGRNGNSIYSNYKQRRSIIRKTKDYVEEQERRPFQSLPSGKKLIKELVEMDCLDRLINLKGLRINPSANCDIAPACKRLTRIGDEIVEQLVEWTKTLPFFDELPVEAHTHLLTQRWAELVLLSAGYYACSVFTPDSPDTTEMIDETDEISFTNPQVNLRLLQNRLSLVLGKEIPLEHVAKEAGPLVTRFTTLLHSFSNLKVSPEAYVCIKAITLLHLSADSTLDRSIIDKVNTLQDHFVKTLQIHLHQPGEDAQTTSLAQILDWLPDLRNASSVLLHSKMFYVPFLLCKNPRRLVFDE | not soluble
MGHHHHHHSHMTNQNVLLNISGVKFVLRIPNAVNLSLINREYEAFNNAQAYRAGLNVETPVLDAKSGVKLTRYLENSNTLSQIQLNEQSCLSQVVNNLYRLHNSEFVFRNVFSVFDEFRQYFSLLENKSAFYQADSRMDKLSAVFWQFEEINKEVILRPCHNDLVPENMLLQDDRLFFIDWEYSGLNDPLFDIATIIEEAHLSKEAADFLLETYCNQTNKYHKTEFQIAHKRLKIHRFCQNVLWFLWTKVKEEHGENFGDYALKRLDAAFKLLEELP | soluble
MEIARKVMEEFLEIWNEALAKRSLPGKFVNKDLNFGEFGLGDNYTPQHTAVRNYALVMAHMIATVQAVSG | not soluble
MFRQLKKNLVATLIAAMTIGQVAPAFADSADTLPDMGTSAGSTLSIGQEMQMGDYYVRQLRGSAPLINDPLLTQYINSLGMRLVSHANSVKTPFHFFLINNDEINAFAFFGGNVVLHSALFRYSDNESQLASVMAHEISHVTQRHLARAMEDQQRSAPLTWVGALGSILLAMASPQAGMAALTGTLAGTRQGMISFTQQNEQEADRIGIQVLQRSGFDPQAMPTFLEKLLDQARYSSRPPEILLTHPLPESRLADARNRANQMRPMVVQSSEDFYLAKARTLGMYNSGRNQLTSDLLDEWAKGNVRQQRAAQYGRALQAMEANKYDEARKTLQPLLAAEPGNAWYLDLATDIDLGQNKANEAINRLKNARDLRTNPVLQLNLANAYLQGGQPQEAANILNRYTFNNKDDSNGWDLLAQAEAALNNRDQELAARAEGYALAGRLDQAISLLSSASSQVKLGSLQQARYDARIDQLRQLQERFKPYTKMLEHHHHHH | soluble
MGSDKIHHHHHHSQGKQISGSSNYITKNIKVGSFDQIKSMSSSDIVYTQKQGAPTVQIYGPDNIVELMETSVSGRTLTIKFKKNTSIRNSGKLEIRVSSPSLKHLSIYGSGNTTFTNGIKSHDELQMSIYGSGNISGNSFSCTKLAARIYGSGNVNLKRISTSDTQVNISGSGNVLLDGKSTEAEYHIAGSGDINATELKVENVNARISGSGSIRCYATENLTGGVSGSGNVAYKGNPQINFSKRGLQKL | not soluble
MQILQVRLKNLNSLVGEWEIDFTDPAFVSDGIFSITGPTGAGKTTVLDAICLALYGRTPRLGKVSKSENEIMSRQTGECFAEVTFAAQSGCFRCHWSQHRAHKKPDGELQNPRHELAEADSGKILETRLTEVGRQIEKITGMDFARFTRSMLLAQGEFAAFLQAAPDERAPILEQITGTEIYSRISIRVHETRVSARRELDRLSAGLNGIQPLT | not soluble
MALPGERFHVLAQLEHLQSKYTGTAMRHEPSRMDCESAPRHSRLSNVSSRNEHVYCRCGEREPSSNPLQSDKSHDSAVWTASREESS | not soluble
MSAAAAPDTARSGRWRVDTDPERVERDLTCLVLTLVELVRQLVERQCVRRMDQGDLSDEQIETLGLTLMRLEEAMTELCERFDLSPSDLNLDLGPLGTLLPVD | not soluble
MGSDKIHHHHHHMYQVPLEMICRHDRTAEVCRAAVEEDGWQLENVPEEMKTPELCRKALETEAGFGNDFHRGLVQHIPSPEVCMEVLKECRENNPEELYGVAVAIRPEVMNGEMADFLLPLDGRCISILPVHLQTPERVRVAVETSGMSAVGRGGVPKSLLTPDVYVRCAAHSRESLMMIPWAERSPEVCLMAKTLYPDIVKNHPEFVPESVRNQDSIYTLNSLMESLTGEKFSYRQMTDFYNGKPLDVKRMETPDGVQKDKAVKFDKETGKFSFSDIRQERKRGLKM | not soluble
GPLGSPQFMNPAAEAEFNILLATDSYKVTHYKQYPPNTSKVYSYFECREKKTENSKLRKVKYEETVFYGLQYILNKYLKGKVVTKEKIQEAKDVYKEHFQDDVFNEKGWNYILEKYDGHLPIEIKAVPEGFVIPRGNVLFTVENTDPECYWLTNWIETILVQSWYPITVATNSREQKKILAKYLLETSGNLDGLEYKLHDFGYRGVSSQETAGIGASAHLVNFKGTDTVAGLALIKKYYGTKDPVPGYSVPAAEHSTITAWGKDHEKDAFEHIVTQFSSVPVSVVSDSYDIYNACEKIWGEDLRHLIVSRSTQAPLIIRPDSGNPLDTVLKVLEILGKKFPVTENSKGYKLLPPYLRVIQGDGVDINTLQEIVEGMKQKMWSIENIAFGSGGGLLQKLTRDLLNCSFKCSYVVTNGLGINVFKDPVADPNKRSKKGRLSLHRTPAGNFVTLEEGKGDLEEYGQDLLHTVFKNGKVTKSYSFDEIRKNAQLNIELEAAHH | soluble
MSTMSSPIYIQIHNQIKQAIEAGRWAVGDRIPSERELATQFDVSRMTLRQAIQTLVDEGILERRVGAGTFVANQKVQEKMSGVTSFTDLMLAQGKVPSSKTISYHVTSPSLSESEKLALGANEQVLRMERIRYGDDVPICFEVATVPERLVKQFTKDEITSSLYRTLEEKASLVPGKAQQTVSAMSASERIAEYLSVRRGDALLRLRQISYLQTGEPFEYVRTQYVGNRFEFYLEK | not soluble
MLYASYMSYVSIKMHASSNGAHISGAETLVDESRAYEFLSSFYQRANTHSKGKPEITTLTIRRIKDADIITIPALEVKCLPALHPSEAHRQVIEQLSNVVSPTIAQMALHTVLNARNMRGAILLCAHTGQRLDPYDPQRGVRASTFGVTPQESAGPTLNKSHFNEALVLASKVMSAPGIVAEICISDDPAYTTGYVTTENTYIRIPHMKDPYSPIGGRVFLLDTRVSTPEDTISYLEQKPVLITGVN | not soluble
